Data taken from US20240059799A1 (Pfizer, published 2024).
Values belong to the binder of their own block, whether it stands above or below them.

Tests used:
[1] = biological target: T1, rat IL-23 (rat, UniProt P43432 23-335; Q91Z84 22-196, limits assumed); test: SPR, antibody captured by anti-human Fc, cytokine injected
T1 chain 1: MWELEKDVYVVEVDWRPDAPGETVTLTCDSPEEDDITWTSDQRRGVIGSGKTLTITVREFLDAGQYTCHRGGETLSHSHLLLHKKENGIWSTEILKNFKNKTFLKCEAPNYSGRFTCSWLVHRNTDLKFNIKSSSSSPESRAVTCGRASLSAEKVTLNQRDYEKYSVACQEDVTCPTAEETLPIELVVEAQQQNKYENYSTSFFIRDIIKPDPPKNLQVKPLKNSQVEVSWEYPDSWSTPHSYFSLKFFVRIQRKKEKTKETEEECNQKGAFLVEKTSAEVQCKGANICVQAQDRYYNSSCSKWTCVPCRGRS
T1 chain 2: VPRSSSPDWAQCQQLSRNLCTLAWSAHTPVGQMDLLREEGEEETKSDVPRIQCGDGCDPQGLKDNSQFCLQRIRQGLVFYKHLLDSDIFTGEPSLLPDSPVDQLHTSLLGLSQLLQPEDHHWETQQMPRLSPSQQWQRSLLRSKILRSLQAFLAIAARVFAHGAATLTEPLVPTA
Protocol: (§1) In order to determine binding to TL1A, kinetic assays were conducted at 37° C. using a collection rate of 10 Hz on a Biacore™ T200 instrument (GE Healthcare). […] For the analysis of the p40 binding arm, kinetic assays were conducted at 37° C. using a collection rate of 10 Hz on a Biacore™ 8 K+ instrument (GE Healthcare).

[2] = biological target: T2, mouse IL-23 (mouse, UniProt P43432 23-335; Q9EQ14 22-196); test: as above
T2 sequence 1: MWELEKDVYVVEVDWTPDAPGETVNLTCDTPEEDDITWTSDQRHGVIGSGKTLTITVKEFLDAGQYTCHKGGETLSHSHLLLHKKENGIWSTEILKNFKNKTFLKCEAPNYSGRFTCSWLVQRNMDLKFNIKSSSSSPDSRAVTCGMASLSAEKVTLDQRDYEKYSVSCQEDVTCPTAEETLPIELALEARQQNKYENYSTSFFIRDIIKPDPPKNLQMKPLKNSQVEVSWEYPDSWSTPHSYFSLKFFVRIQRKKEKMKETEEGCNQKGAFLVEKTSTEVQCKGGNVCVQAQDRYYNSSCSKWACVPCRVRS
T2 sequence 2: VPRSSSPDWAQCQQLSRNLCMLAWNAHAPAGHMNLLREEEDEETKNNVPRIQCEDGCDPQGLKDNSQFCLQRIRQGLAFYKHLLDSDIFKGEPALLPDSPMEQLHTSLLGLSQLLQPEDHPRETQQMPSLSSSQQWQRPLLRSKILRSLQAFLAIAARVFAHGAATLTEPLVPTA
Protocol: as §1

[3] = biological target: T3, rabbit IL-12 (rabbit); test: as above
T3 chain 1: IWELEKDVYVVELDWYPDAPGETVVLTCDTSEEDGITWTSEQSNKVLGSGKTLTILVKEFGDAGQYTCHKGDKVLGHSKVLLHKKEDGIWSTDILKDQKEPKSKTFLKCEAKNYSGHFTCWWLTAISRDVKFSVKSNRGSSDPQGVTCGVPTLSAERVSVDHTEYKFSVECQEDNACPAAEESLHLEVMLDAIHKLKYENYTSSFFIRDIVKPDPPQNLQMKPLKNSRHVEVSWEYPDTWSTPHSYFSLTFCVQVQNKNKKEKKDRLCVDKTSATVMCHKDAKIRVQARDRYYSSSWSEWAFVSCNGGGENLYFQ
T3 chain 2: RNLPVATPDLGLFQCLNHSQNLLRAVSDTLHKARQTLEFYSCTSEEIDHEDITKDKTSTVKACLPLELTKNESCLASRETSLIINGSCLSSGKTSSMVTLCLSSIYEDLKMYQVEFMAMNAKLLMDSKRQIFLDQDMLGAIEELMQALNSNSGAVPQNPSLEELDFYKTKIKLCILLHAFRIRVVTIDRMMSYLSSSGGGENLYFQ
Protocol: as §1

[4] = biological target: T4, mouse IL-12 (mouse, UniProt P43432 23-335; P43431 23-215); test: as above
T4 sequence 1: T2 sequence 1
T4 sequence 2: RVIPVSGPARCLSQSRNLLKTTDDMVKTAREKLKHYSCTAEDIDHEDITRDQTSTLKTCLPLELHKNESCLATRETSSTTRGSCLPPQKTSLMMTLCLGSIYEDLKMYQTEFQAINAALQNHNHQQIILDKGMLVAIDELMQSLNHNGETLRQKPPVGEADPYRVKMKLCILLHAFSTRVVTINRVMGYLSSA
Protocol: as §1

[5] = biological target: T5, rabbit IL-23 (rabbit); test: as above
T5 chain 1: T3 chain 1
T5 chain 2: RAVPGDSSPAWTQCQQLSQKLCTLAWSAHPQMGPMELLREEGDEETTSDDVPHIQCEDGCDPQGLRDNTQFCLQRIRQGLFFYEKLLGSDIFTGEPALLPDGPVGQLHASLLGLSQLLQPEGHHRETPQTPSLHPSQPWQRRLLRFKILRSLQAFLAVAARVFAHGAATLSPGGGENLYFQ
Protocol: as §1

[6] = biological target: T6, recombinant human TL1A (human, UniProt O95150 71-251); test: SPR, Biacore T200, 37 C; biotinylated TL1A captured on Biotin CAPture chip, antibody injected
T6 construct: TL1A is described as a homotrimer; Biotinylated for SPR capture; also called TNFSF15
T6 chain: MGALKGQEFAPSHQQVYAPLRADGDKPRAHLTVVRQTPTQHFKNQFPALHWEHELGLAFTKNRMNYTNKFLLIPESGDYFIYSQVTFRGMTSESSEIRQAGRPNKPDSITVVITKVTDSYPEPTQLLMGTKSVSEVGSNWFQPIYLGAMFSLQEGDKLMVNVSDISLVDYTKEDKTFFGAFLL
Protocol: as §1

[7] = biological target: T7, recombinant mouse TL1A (mouse, UniProt Q5UBV8 75-252); test: as above
T7 chain: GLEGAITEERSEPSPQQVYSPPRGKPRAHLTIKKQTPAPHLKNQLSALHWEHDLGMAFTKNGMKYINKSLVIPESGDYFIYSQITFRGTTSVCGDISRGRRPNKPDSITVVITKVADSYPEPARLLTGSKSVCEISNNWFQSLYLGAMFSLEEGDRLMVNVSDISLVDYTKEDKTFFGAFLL
Protocol: as §1

binding result [1]: no binding (tested: 200 nM)
binding result [2]: no binding (tested: 200 nM)
binding result [3]: no binding (tested: 200 nM)
binding result [4]: no binding (tested: 200 nM)
binding result [5]: no binding (tested: 200 nM)
B1: p40TL1A-0033 (bispecific antibody, human IgG1, kappa)
chain 1: not shown
chain 2: QVQLVQSGAEVKKPGASVKVSCKASGYDYTYYGISWVRQAPGQGLEWMGWISTYNTGTHYAPSLQGRVTMTTDTSTSTAYMELRSLRSDDTAVYYCARESYYGSGAFRGGMDVWGQGTTVTVSSASTKGPSVFPLAPSSKSTSGGTAALGCLVKDYFPEPVTVSWNSGALTSGVHTFPAVLQSSGLYSLSSVVTVPSSSLGTQTYICNVNHKPSNTKVDKKVEPKSC
heavy: EVQLVQSGAEVKKPGESLKISCKGSGYSFTTYWLGWVRQMPGKGLDWIGIMSPVDSDIRYSPSFQGQVTMSVDKSITTAYLQWNSLKASDTAMYYCARRRPGQGYFDFWGQGTLVTVSSASTKGPSVFPLAPSSKSTSGGTAALGCLVKDYFPEPVTVSWNSGALTSGVHTFPAVLQSSGLYSLSSVVTVPSSSLGTQTYICNVNHKPSNTKVDKKVEPKSCDKTHTCPPCPAPEAAGAPSVFLFPPKPKDTLMISRTPEVTCVVVDVSHEDPEVKFNWYVDGVEVHNAKTKPREEQYNSTYRVVSVLTVLHQDWLNGKEYKCKVSNKALPAPIEKTISKAKGQPREPQVCTLPPSREEMTKNQVSLWCLVKGFYPSDIAVEWESNGQPENNYKTTPPVLDSDGSFFLYSKLTVDKSRWQQGNVFSCSVLHEALHSHYTQKSLSLSPGK
light: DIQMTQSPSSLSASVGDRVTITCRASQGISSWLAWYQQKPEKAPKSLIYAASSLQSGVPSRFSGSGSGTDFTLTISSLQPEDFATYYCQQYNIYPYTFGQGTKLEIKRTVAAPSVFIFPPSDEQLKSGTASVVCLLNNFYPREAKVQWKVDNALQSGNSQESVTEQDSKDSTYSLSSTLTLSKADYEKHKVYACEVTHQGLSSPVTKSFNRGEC
notes: KiH modified-Fd bispecific: TL1A VL-CL-Fc (hole), TL1A mFd, p40 HC (knob), p40 LC; LS

Kd [6]: 0.34 nM
koff [6]: 5.05e-05 s⁻¹
kon [6]: 150000 M⁻¹ s⁻¹
Kd [7]: 288 nM
koff [7]: 0.00761 s⁻¹
kon [7]: 26700 M⁻¹ s⁻¹
B2: p40TL1A-0033 bispecific antibody (bispecific antibody, human IgG1, kappa)
heavy: B1 heavy
light: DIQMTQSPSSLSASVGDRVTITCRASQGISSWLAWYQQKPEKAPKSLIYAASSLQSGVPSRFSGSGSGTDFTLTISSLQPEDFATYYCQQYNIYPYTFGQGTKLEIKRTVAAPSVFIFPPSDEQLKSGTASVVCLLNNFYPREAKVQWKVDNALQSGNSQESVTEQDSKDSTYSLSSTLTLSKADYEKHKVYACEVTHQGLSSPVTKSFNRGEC
chain 1: not shown
chain 2: B1 chain 2
notes: Single cell KiH, modified Fd format; IgG1 effector-function-minimized Fc with LS mutations
